Paper PMC10397247
Values belong to the binder of their own block, whether it stands above or below them.

How the values were obtained:
[1] = target: T1, 4H855-bH; experiment: two-hybrid library CCNG1;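 further: natural log of median RNA to DNA barcode read ratio; higher means stronger binding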
T1 chain: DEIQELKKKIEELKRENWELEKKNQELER

[2] = target: T2, 4H575-bH; experiment: two-hybrid library CCNG1;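 further: natural log of median RNA to DNA barcode read ratio; higher means stronger binding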
T2 chain: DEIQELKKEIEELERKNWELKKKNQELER

[3] = target: T3, 4H457-bH; experiment: two-hybrid library CCNG1;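 further: natural log of median RNA to DNA barcode read ratio; higher means stronger binding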
T3 chain: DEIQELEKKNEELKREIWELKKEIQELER

[4] = target: T4, 4H797-bH; experiment: two-hybrid library CCNG1;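 further: natural log of median RNA to DNA barcode read ratio; higher means stronger binding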
T4 chain: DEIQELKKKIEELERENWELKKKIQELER

[5] = target: T5, 4H953-bH; experiment: two-hybrid library CCNG1
T5 chain: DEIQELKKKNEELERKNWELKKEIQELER

[6] = target: T6, 4H568-bH; experiment: two-hybrid library CCNG1
T6 chain: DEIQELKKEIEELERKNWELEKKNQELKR

[7] = target: T7, 4H3782-bH; experiment: two-hybrid library CCNG1
T7 chain: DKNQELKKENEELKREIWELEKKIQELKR

[8] = target: T8, 4H717-bH; experiment: two-hybrid library CCNG1
T8 chain: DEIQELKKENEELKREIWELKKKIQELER

[9] = target: T9, 4H754-bH; experiment: two-hybrid library CCNG1
T9 chain: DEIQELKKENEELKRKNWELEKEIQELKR

[10] = target: T10, 4H883-bH; experiment: two-hybrid library CCNG1
T10 chain: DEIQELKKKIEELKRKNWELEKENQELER

[11] = target: T11, 4H4001-bH; experiment: two-hybrid library CCNG1
T11 chain: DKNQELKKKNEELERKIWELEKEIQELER

[12] = target: T12, 4H72-bH; experiment: two-hybrid library CCNG1
T12 chain: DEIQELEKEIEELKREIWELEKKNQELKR

[13] = target: T13, 4H4073-bH; experiment: two-hybrid library CCNG1
T13 chain: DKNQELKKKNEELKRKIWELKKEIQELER

[14] = target: T14, 4H3926-bH; experiment: two-hybrid library CCNG1
T14 chain: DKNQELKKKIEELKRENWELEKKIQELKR

[15] = target: T15, 4H683-bH; experiment: two-hybrid library CCNG1
T15 chain: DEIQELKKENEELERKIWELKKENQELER

[16] = target: T16, 4H918-bH; experiment: two-hybrid library CCNG1
T16 chain: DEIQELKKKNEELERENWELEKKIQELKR

[17] = target: T17, 4H454-bH; experiment: two-hybrid library CCNG1
T17 chain: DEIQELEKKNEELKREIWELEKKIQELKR

[18] = target: T18, 4H780-bH; experiment: two-hybrid library CCNG1
T18 chain: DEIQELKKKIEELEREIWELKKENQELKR

[19] = target: T19, 4H968-bH; experiment: two-hybrid library CCNG1
T19 chain: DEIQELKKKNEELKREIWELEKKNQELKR

[20] = target: T20, 4H687-bH; experiment: two-hybrid library CCNG1
T20 chain: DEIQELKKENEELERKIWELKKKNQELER

[21] = target: T21, 4H967-bH; experiment: two-hybrid library CCNG1
T21 chain: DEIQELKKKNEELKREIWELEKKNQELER

[22] = target: T22, 4H780-bN; experiment: two-hybrid library CCNG1
T22 chain: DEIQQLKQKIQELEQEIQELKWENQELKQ

[23] = target: T23, 4H346-bH; experiment: two-hybrid library CCNG1
T23 chain: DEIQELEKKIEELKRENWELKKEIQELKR

[24] = target: T24, 4H3855-bH; experiment: two-hybrid library CCNG1
T24 chain: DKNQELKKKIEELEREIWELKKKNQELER

[25] = target: T25, 4H607-bH; experiment: two-hybrid library CCNG1
T25 chain: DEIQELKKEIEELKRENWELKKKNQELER

[26] = target: T26, 4H3427-bH; experiment: two-hybrid library CCNG1
T26 chain: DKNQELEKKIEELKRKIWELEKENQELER

[27] = target: T27, 4H908-bH; experiment: two-hybrid library CCNG1
T27 chain: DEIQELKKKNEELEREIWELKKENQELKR

[28] = target: T28, 4H48-AA; experiment: two-hybrid library CCmax; conditions: mean of both orientations
T28 chain: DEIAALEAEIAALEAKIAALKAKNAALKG

[29] = target: T29, 4H717-AA; experiment: two-hybrid library CCmax; conditions: mean of both orientations
T29 chain: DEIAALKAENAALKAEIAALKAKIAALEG

[30] = target: T30, 4H3112-AA; experiment: two-hybrid library CCmax; conditions: mean of both orientations
T30 chain: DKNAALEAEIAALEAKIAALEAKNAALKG

[31] = target: T31, 4H454-AA; experiment: two-hybrid library CCmax; conditions: mean of both orientations
T31 chain: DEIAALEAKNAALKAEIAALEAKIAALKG

[32] = target: T32, 4H2837-AA; experiment: two-hybrid library CCmax; conditions: mean of both orientations
T32 chain: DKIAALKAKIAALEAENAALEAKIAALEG

[33] = target: T33, 4H2393-AA; experiment: two-hybrid library CCmax; conditions: mean of both orientations
T33 chain: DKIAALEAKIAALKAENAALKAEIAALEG

[34] = target: T34, 4H881-AA; experiment: two-hybrid library CCmax; conditions: mean of both orientations
T34 chain: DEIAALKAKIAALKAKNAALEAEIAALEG

[35] = target: T35, 4H335-AA; experiment: two-hybrid library CCmax
T35 chain: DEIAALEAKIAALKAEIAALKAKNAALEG

[36] = target: T36, 4H3343-AA; experiment: two-hybrid library CCmax; conditions: mean of both orientations
T36 chain: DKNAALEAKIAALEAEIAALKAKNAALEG

[37] = target: T37, 4H2754-AA; experiment: two-hybrid library CCmax; conditions: mean of both orientations
T37 chain: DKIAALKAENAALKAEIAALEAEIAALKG

[38] = target: T38, 4H605-AA; experiment: two-hybrid library CCmax; conditions: mean of both orientations
T38 chain: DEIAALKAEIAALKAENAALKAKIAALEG

[39] = target: T39, 4H2617-AA; experiment: two-hybrid library CCmax; conditions: mean of both orientations
T39 chain: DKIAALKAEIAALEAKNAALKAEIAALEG

[40] = target: T40, 4H2354-AA; experiment: two-hybrid library CCmax; conditions: mean of both orientations
T40 chain: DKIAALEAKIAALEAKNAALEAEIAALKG

[41] = target: T41, 4H794-AA; experiment: two-hybrid library CCmax; conditions: mean of both orientations
T41 chain: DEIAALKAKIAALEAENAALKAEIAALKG

[42] = target: T42, 4H2466-AA; experiment: two-hybrid library CCmax; conditions: mean of both orientations
T42 chain: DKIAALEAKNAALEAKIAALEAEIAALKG

[43] = target: T43, 4H906-AA; experiment: two-hybrid library CCmax; conditions: mean of both orientations
T43 chain: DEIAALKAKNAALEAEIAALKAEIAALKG

[44] = target: T44, 4H780-AA; experiment: two-hybrid library CCmax; conditions: mean of both orientations
T44 chain: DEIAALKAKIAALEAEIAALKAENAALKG

[45] = target: T45, 4H566-AA; experiment: two-hybrid library CCmax; conditions: mean of both orientations
T45 chain: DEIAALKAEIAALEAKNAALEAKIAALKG

[46] = target: T46, 4H3921-AA; experiment: two-hybrid library CCmax; conditions: mean of both orientations
T46 chain: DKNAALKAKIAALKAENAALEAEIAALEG

[47] = target: T47, 4H234-AA; experiment: two-hybrid library CCmax
T47 chain: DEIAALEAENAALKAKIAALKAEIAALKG

[48] = target: T48, 4H2883-AA; experiment: two-hybrid library CCmax; conditions: mean of both orientations
T48 chain: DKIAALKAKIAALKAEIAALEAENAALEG

[49] = target: T49, 4H993-AA; experiment: two-hybrid library CCmax; conditions: mean of both orientations
T49 chain: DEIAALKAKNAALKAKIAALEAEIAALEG

[50] = target: T50, 4H3427-AA; experiment: two-hybrid library CCmax; conditions: mean of both orientations
T50 chain: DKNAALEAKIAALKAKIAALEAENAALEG

[51] = target: T51, 4H317-AA; experiment: two-hybrid library CCmax; conditions: mean of both orientations
T51 chain: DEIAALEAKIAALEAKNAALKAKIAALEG

[52] = target: T52, 4H3627-AA; experiment: two-hybrid library CCmax; conditions: mean of both orientations
T52 chain: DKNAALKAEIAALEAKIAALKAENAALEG

[53] = target: T53, 4H678-AA; experiment: two-hybrid library CCmax; conditions: mean of both orientations
T53 chain: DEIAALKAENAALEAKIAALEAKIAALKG

[54] = target: T54, 4H2575-AA; experiment: two-hybrid library CCmax; conditions: mean of both orientations
T54 chain: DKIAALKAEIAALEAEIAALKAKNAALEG

[55] = target: T55, 4H2505-AA; experiment: two-hybrid library CCmax; conditions: mean of both orientations
T55 chain: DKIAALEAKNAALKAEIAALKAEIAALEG

[56] = target: T56, 4H3606-AA; experiment: two-hybrid library CCmax; conditions: mean of both orientations
T56 chain: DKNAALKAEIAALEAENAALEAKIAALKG

[57] = target: T57, 4H2944-AA; experiment: two-hybrid library CCmax; conditions: mean of both orientations
T57 chain: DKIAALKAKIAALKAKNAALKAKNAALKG

[58] = target: T58, 4H3655-AA; experiment: two-hybrid library CCmax; conditions: mean of both orientations
T58 chain: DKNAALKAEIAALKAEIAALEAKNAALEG

[59] = target: T59, 4H429-AA; experiment: two-hybrid library CCmax; conditions: mean of both orientations
T59 chain: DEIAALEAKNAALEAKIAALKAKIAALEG

[60] = target: T60, 4H2642-AA; experiment: two-hybrid library CCmax; conditions: mean of both orientations
T60 chain: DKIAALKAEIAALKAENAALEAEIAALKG

[61] = target: T61, 4H342-AA; experiment: two-hybrid library CCmax
T61 chain: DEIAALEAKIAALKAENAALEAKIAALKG

[62] = target: T62, 4H2729-AA; experiment: two-hybrid library CCmax; conditions: mean of both orientations
T62 chain: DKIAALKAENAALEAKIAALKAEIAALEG

[63] = target: T63, 4H3844-AA; experiment: two-hybrid library CCmax; conditions: mean of both orientations
T63 chain: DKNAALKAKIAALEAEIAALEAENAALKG

[64] = target: T64, 4H2949-AA; experiment: two-hybrid library CCmax; conditions: mean of both orientations
T64 chain: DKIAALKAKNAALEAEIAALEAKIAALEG

interaction score [1]: -0.0661
interaction score [2]: 1.53
interaction score [3]: -0.153
interaction score [4]: -0.726
interaction score [5]: -2.3
interaction score [6]: -1.66
interaction score [7]: -0.106
interaction score [8]: -0.417
interaction score [9]: -0.851
interaction score [10]: -1.42
interaction score [11]: 0.717
interaction score [12]: -0.0186
interaction score [13]: 0.194
interaction score [14]: -0.169
interaction score [15]: -0.937
interaction score [16]: -0.345
interaction score [17]: -0.546
interaction score [18]: 0.188
interaction score [19]: -0.828
interaction score [20]: -0.309
interaction score [21]: -1.41
interaction score [22]: -0.425
interaction score [23]: -1.08
interaction score [24]: 0.0459
interaction score [25]: -1.37
interaction score [26]: 1.13
interaction score [27]: -0.797
Binder: DKNQELEKKIEELKRKIWELEKENQELER [4H3427-bH]

interaction score [28]: -0.786
interaction score [29]: 0.359
interaction score [30]: -1.22
interaction score [31]: 1.79
interaction score [32]: -1.08
interaction score [33]: 0.577
interaction score [34]: -1.05
interaction score [35]: -1.24
interaction score [36]: -0.996
interaction score [37]: 2.04
interaction score [38]: -1.45
interaction score [39]: -1.32
interaction score [40]: -0.425
interaction score [41]: -1.24
interaction score [42]: -0.379
interaction score [43]: 0.324
interaction score [44]: -1.42
interaction score [45]: 0.581
interaction score [46]: 0.388
interaction score [47]: 1.91
interaction score [48]: -1.27
interaction score [49]: 1.77
interaction score [50]: -1.32
interaction score [51]: -1.11
interaction score [52]: -0.624
interaction score [53]: 1.31
interaction score [54]: -0.746
interaction score [55]: 1.67
interaction score [56]: -0.346
interaction score [57]: -1.71
interaction score [58]: -0.983
interaction score [59]: -1.25
interaction score [60]: 0.56
interaction score [61]: 0.11
interaction score [62]: 1.8
interaction score [63]: -1.28
interaction score [64]: 1.73
Binder: DEIAALEAENAALKAKIAALKAEIAALKG [4H234-AA]
